# Paper doi:10.1101/2023.11.17.567387
# Target: C. elegans DPF-3 (C. elegans)
# Experiment: cryo-EM structure
substance,measurement,value
C. elegans DPF-3 (enzyme),stoichiometry N,2
